Assay results taken from EP0860700A2.

Molecular target: HSV-1 major capsid protein VP5 (gene product of UL19) (herpes simplex virus type 1 (HSV-1))
Test: co-immunoprecipitation with VP5 antisera of in vitro translated radiolabeled protein mixed with BAC-VP5 Sf9 extract, SDS-PAGE

HSV-1 UL15 gene product (75 kD protein)
fold amount co-immunoprecipitated with VP5 against the negative control proteins (HPV-6b E1, HPV-16 E1, HPV-16 E2): 10 fold
